Sequences and labels used below:
T1: Human IL-23 (human, UniProt Q9NPF7 20-189; P29460 23-328)
T1 construct: Heterodimer of p40 and p19; For the crystal it was secreted from insect cells from a bi-cistronic construct; also called interleukin 23; human recombinant IL-23
T1 sequence (looked up) 1: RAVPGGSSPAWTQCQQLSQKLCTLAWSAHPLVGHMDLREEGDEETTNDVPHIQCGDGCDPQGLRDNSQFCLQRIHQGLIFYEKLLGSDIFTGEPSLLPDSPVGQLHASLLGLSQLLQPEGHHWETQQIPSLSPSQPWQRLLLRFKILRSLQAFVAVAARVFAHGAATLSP
T1 sequence (looked up) 2: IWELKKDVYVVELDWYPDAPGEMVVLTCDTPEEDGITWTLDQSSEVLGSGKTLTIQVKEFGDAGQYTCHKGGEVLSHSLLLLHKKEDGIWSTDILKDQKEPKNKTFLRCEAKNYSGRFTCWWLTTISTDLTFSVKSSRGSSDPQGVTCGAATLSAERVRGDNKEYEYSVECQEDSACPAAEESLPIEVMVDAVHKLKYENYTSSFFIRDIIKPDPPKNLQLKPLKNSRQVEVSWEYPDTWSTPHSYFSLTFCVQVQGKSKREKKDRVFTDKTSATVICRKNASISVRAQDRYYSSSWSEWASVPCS

B1: Anti-IL-23 Adnectin 1454B08 (designed binder)
chain: MGVSDVPRDLEVVAATPTSLLISWEHDYPYRRYYRITYGETGGNSPVQEFTVPKDVDTATISGLKPGVDYTITVYAVTSSYKYDMQYSPISINYRTEIDKPSQHHHHHH
notes: 10Fn3-based Adnectin expressed in E. coli followed by a HIS6 tag; Fn3 domain is positions 3-96 of the entry; also called Parent
B2: 1454B08 Y28→A (designed binder)
chain: B1 chain with Y30A
notes: Point variant of 1454B08
B3: 1454B08 Y73→N (designed binder)
chain: B1 chain with Y75N
notes: Point variant of 1454B08
B4: 1454B08 P87→A (designed binder)
chain: B1 chain with P89A
notes: Point variant of 1454B08
B5: 1454B08 Y73→A (designed binder)
chain: B1 chain with Y75A
notes: Point variant of 1454B08
B6: 1454B08 Y73→R (designed binder)
chain: B1 chain with Y75R
notes: Point variant of 1454B08
B7: 1454B08 T35→Q (designed binder)
chain: B1 chain with T37Q
notes: Point variant of 1454B08
B8: 1454B08 V45→E (designed binder)
chain: B1 chain with V47E
notes: Point variant of 1454B08
B9: 1454B08 T35→D (designed binder)
chain: B1 chain with T37D
notes: Point variant of 1454B08; also called Thr35→Asp
B10: 1454B08 V75→K (designed binder)
chain: B1 chain with V77K
notes: Point variant of 1454B08
B11: 1454B08 Y73→Q (designed binder)
chain: B1 chain with Y75Q
notes: Point variant of 1454B08; also called Tyr 73→Gln
B12: 1454B08 Y81→A (designed binder)
chain: B1 chain with Y83A
notes: Point variant of 1454B08
B13: 1454B08 T35→N (designed binder)
chain: B1 chain with T37N
notes: Point variant of 1454B08
B14: 1454B08 T35→E (designed binder)
chain: B1 chain with T37E
notes: Point variant of 1454B08
B15: 1454B08 V45→Q (designed binder)
chain: B1 chain with V47Q
notes: Point variant of 1454B08
B16: 1454B08 V45→D (designed binder)
chain: B1 chain with V47D
notes: Point variant of 1454B08
B17: 1454B08 V45→N (designed binder)
chain: B1 chain with V47N
notes: Point variant of 1454B08
B18: 1454B08 V75→Y (designed binder)
chain: B1 chain with V77Y
notes: Point variant of 1454B08
B19: 1454B08 V75→Q (designed binder)
chain: B1 chain with V77Q
notes: Point variant of 1454B08
B20: Anti-IL-23 Adnectin 1866F10 (designed binder)
chain: B1 chain with E25D, K54R, D55N, V56I, D57N, S80T, Y81L, M85I
B21: Anti-IL-23 Adnectin 1866D11 (designed binder)
chain: B1 chain with E25D, M85I, S88P
B22: Anti-IL-23 Adnectin 1866C02 (designed binder)
chain: B1 chain with E25D, D27N, P29T, Y30W, R31Y, K54R, D55G, M85I, S88P
B23: Anti-IL-23 Adnectin 1241A05 (designed binder)
chain: B1 chain with E25N, D27N, P29S, R31Y, K54R, D55G, D57A
notes: 10Fn3-based Adnectin expressed in E. coli followed by a HIS6 tag; Fn3 domain is positions 3-96 of the entry; also called Clone 1241A05
B24: Anti-IL-23 Adnectin 1454D02 (designed binder)
chain: B1 chain with E25D, K54R, D55N, V56I, D57N
notes: 10Fn3-based Adnectin expressed in E. coli followed by a HIS6 tag (captured by anti-His mAb in SPR)
B25: Anti-IL-23 Adnectin 1454H11 (designed binder)
chain: B1 chain with K54R, D55E, V56D, D57S
notes: 10Fn3-based Adnectin expressed in E. coli followed by a HIS6 tag; Fn3 domain is positions 3-96 of the entry
B26: Anti-IL-23 Adnectin 1454C03 (designed binder)
chain: B1 chain with E25D, H26M, D27Y, R31S, D55E, V56Y
notes: as for B25
B27: Anti-IL-23 Adnectin 1454F05 (designed binder)
chain: B1 chain with E25Y, H26M, D27H, R31S, D55Q, V56H
notes: as for B25
B28: Anti-IL-23 Adnectin 1454F09 (designed binder)
chain: B1 chain with E25D, D27N, P29S, K54R, D55H, V56T
notes: as for B25
B29: Anti-IL-23 Adnectin 1454F07 (designed binder)
chain: B1 chain with E25Y, D27M, P29S, K54R
notes: as for B25
B30: Anti-IL-23 Adnectin 1454E09 (designed binder)
chain: B1 chain with E25M, K54M, D55E, V56E
notes: as for B25
B31: Anti-IL-23 Adnectin 1454B05 (designed binder)
chain: B1 chain with E25Y, V56E, D57E
notes: as for B25

Positions count from the first letter of the chain named.

One experiment deals with T1, Human IL-23. The experiment can be described thus: competitive ELISA: Adnectin pre-incubated with 1 nM IL-23, binding to coated IL-23R-Fc. On the procedure: (§1) Adnectin variants were tested by ELISA for their ability to bind IL-23 in a manner that was competitive with the binding site of the native IL-23 receptor (IL-23R). Recombinant human IL-23R-Fc (R&D Systems, Minneapolis, Minn.) was coated overnight at 4° C. on a NUNC® Maxisorp plate (Thermo Fisher Scientific, Denmark) with 50 μL at 4 μg/mL in PBS. All washing was performed with PBST (PBS with 0.05% (w/v) Tween) using an automated plate washer (Biotek, Vt.). OptEIA buffer (BD Bioscience, CA) was used as block and assay diluent. Adnectin dilutions ranging from 200 nM to 28 pM were pre-incubated with 1 nM IL-23 for an hour before transferring to blocked IL-23R-Fc coated plates for 30 minutes. Bound IL-23 was detected via anti-IL-23 (GeneTex, CA) and anti-mouse-HRP (R&D Systems, MN) followed by TMB (3,3′,5,5′-tetramethylbenzidine) (BD Bioscience, CA) addition. Typical development time was 10 minutes. […] IC50s were generated from the average of four runs with an in-house curve fitting application.
On the technique in general: ELISA stands for enzyme-linked immunosorbent assay.
B1 registered an IC50 of 1 nM.
In turn, B2 yielded an IC50 of 13 nM.
On the same count and under the same terms, next, B3: 1.2 nM.
With B4, the IC50 is 8.3 nM.
Still for that read-out and setting: next, B5: 0.65 nM.
Turning to B6, the IC50 was 1.2 nM.
Same read-out and setting: next, B7: 1 nM; B8: 0.51 nM; B9: 49 nM.
The molecule B10 came in with an IC50 of 5.7 nM.
Take B11: the IC50 amounted to 0.26 nM.
Still for that read-out and setting: next, B12: 35 nM; B13: 1.7 nM.
As for B14, the IC50 was 0.6 nM.
B15: the IC50 came to 0.34 nM.
Same read-out and setting: next, B16: 0.83 nM; B17: 0.54 nM.
On the same count and under the same terms, then B18, with 2.2 nM; and B19, with 2.3 nM.

The target of a further experiment is T1, Human IL-23. Put plainly: cell-based or functional assay.
In turn, anti-p19 polyclonal antibody (AF1716) gave a pSTAT3 IC50 (nM) of 36.5 nM.
On the same count and under the same terms, next, B20: 0.06 nM.
For B1, the “pSTAT3 IC50 (nM)” value is 0.3 nM.
On the same count and under the same terms, next, B21: 0.03 nM; B22: 0.03 nM.
As to B23, the “pSTAT3 IC50 (nM)” value came to 30.7 nM.
Same read-out and setting: then B24, with 0.48 nM.
On the same count and under the same terms, then B25, with 0.45 nM; and B26, with 0.44 nM.

The next experiment concerns the target T1, Human IL-23. The experiment can be described thus: SPR (Biacore T100), Adnectin captured by anti-His mAb, IL-23 injected, 25 C. The procedure: The anti-His antibody, mAb050 (RnD Systems, MN) was diluted to 20 μg/mL in acetate, pH 5.0 and immobilized to ˜9000 RU on flow cells 1 and 2 of a CM5 chip surface (GE Healthcare, Piscataway, N.J.) according to the manufacturer's instructions. All surface plasmon experiments were conducted in HBS-EP (10 mM Hepes 150 mM NaCl 3 mM EDTA 0.05% Surfactant P20) at 25° C. IL-23 was injected over anti-His mAb captured Adnectins for 2 minutes followed by a 10 minute dissociation phase. Kinetic parameters were calculated using the T100. Biaevaluation.
In general terms: Surface plasmon resonance follows binding to a sensor surface in real time, without labels.
Consider B1, for which the Kd was 3.72 nM, the off-rate constant (koff) was determined as 0.000409 s⁻¹ and the on-rate constant (kon) is 110000 M⁻¹ s⁻¹.
Molecule B23 showed a dissociation constant (Kd) of 32.6 nM, a koff of 0.000236 s⁻¹ and a kon of 7280 M⁻¹ s⁻¹.
For B24, in that order: 9.57 nM, 0.000438 s⁻¹ and 45700 M⁻¹ s⁻¹.
For B25, in that order: 2.8 nM, 0.000227 s⁻¹ and 81000 M⁻¹ s⁻¹.
For B27, in that order: 4.75 nM, 0.000525 s⁻¹ and 111000 M⁻¹ s⁻¹.
For B28, the Kd was determined as 7.45 nM, the koff came out at 0.000928 s⁻¹ and the kon is 125000 M⁻¹ s⁻¹.
The matching figures for B29: 9.43 nM, 0.000447 s⁻¹ and 47400 M⁻¹ s⁻¹.
The matching figures for B30: 10.1 nM, 0.000569 s⁻¹ and 56600 M⁻¹ s⁻¹.
B31 gave a Kd of 2.27 nM, a koff of 0.000677 s⁻¹ and a kon of 298000 M⁻¹ s⁻¹.
The matching figures for B26: 3.91 nM, 0.000468 s⁻¹ and 120000 M⁻¹ s⁻¹.

The next experiment has as its target T1, Human IL-23. The experiment can be described thus: competitive ELISA, ratio of IC50 against parent 1454B08. On the procedure: as §1
Turning to B1, the “Activity (parent/mutant)” value turned out to be 1.
On to B2, for which the “Activity (parent/mutant)” value came out at 0.08.
For the molecule B3, the “Activity (parent/mutant)” value was 0.8.
The same measure, in the same setting: then B4, with 0.1; and B5, with 1.5.
On the same count and under the same terms, then B6, with 0.8; and B7, with 1; and B8, with 1.9.
As for B9, the “Activity (parent/mutant)” value was 0.02.
Still for that read-out and setting: next, B10: 0.2; B11: 3.8.
For B12, the “Activity (parent/mutant)” value came out at 0.03.
Regarding B13, the “Activity (parent/mutant)” value was 0.6.
Still for that read-out and setting: next, B14: 1.7; B15: 2.9; B16: 1.2.
B17: the “Activity (parent/mutant)” value is 1.8.
The same measure, in the same setting: then B18, with 0.4; and B19, with 0.4.

One may read the IC50 as the midpoint of a concentration-inhibition curve. Read a low IC50 as greater potency in that assay. One may read the Kd as the constant that tells how readily two partners part at equilibrium. Lower therefore signals tighter binding. As a reminder, the koff is the first-order rate constant of dissociation. Read a low koff as a long-lived complex. Broadly, the kon is the rate constant with which the complex forms. Lower therefore signals slow association.

Source of the values: patent publication US20130288372A1 (Bristol-Myers Squibb, published 2013).
